Test results taken from patent US20160279250, “METHODS FOR STRUCTURAL DETERMINATION OF SELENIUM DERIVATIZED NUCLEIC ACID COMPLEXES” (SeNA Research ,Inc., published 2016).

Target: RNase H (D132N, inactive mutant) (Bacillus halodurans, UniProt Q9KEI9 Q9KEI9:59-196, D132N)
Experiment: structure; PDB 3TWH, 1.80 A; 5 mM MgCl2, MES pH 6.5, PEG 20000; substrate complex
Settings: tags: expressed in BL21(DE3) pLysE, 5 bp duplex with one-base overhang at both ends
Description: By using the sitting-drop vapor diffusion method at 25° C., the crystals were readily obtained from a mixture of the crystallization screen [Buffer: 0.1 M MES, pH 6.5; precipitant: 12% (w/v), PEG 20000].
We have synthesized Se-modified DNAs to investigate the DNA/RNA/RNase H complex. […] The complex of RNase H/RNA/Se-DNA (5′-UCGACA-3′/5′-AT-^SeG-TC-^SeGp-3′) was crystallized in a buffer containing 0.1 M MES (pH 6.5) and precipitant (12% w/v, PEG 20000). The crystals were also grown using the sitting drop vapor diffusion method. The crystals appeared within a week and reached their maximum size within a month. Two crystals were used to collect the MAD/SAD data sets. […] After the SAD or MAD dataset is collected from a single crystal, the selenium atoms can be located by direct methods and the phase can be determined similarly to the well-established protein strategy (Elkayam et al., Cell, 150:100-110 (2012); Ferre-D'Amare et al., Nature, 395:567-574 (1998); Hendrickson, Science, 254:51-58 (1991); Hendrickson, Trends Biochem. Sci., 25:637-643 (2000); Schirle and MacRae, Science, 336:1037-1040 (2012); Yang et al., Science 249:1398-1405 (1990)).
The Se-complex structure was finally determined (3TWH; 1.80 Å resolution; FIG. 1) via the selenium anomalous signal and MAD phasing. […] Moreover, the Se-complex structure has been determined by both MAD phasing and molecular replacement. […]

B1: Se-DNA/RNA duplex (DNA-Se, double Se) (DNA:RNA)
DNA: ATGTCG
RNA: UCGACA
modifications: 6-Se-dG at DNA positions 3 and 6; DNA 3'-phosphate
binding result: binds
